Consider one protein from article PMC2665906, “Structure of mouse IP-10, a chemokine” (Acta Crystallographica Section D: Biological Crystallography, 2008).

The data set concerns the molecule itself. The data set can be described thus: crystal structure; hanging-drop vapour diffusion; protein 10 mg/ml in 50 mM Tris-HCl pH 8.0; 0.1 M Tris-HCl pH 8.0, 0.2 M CaCl2, 35% PEG 3350, 289 K; space group C2, four molecules in the asymmetric unit; 2.5 Å.

B1: Mouse interferon-γ-inducible protein (IP-10) (natural protein, UniProt P17515 22-98, looked up)
chain: IPLARTVRCNCIHIDDGPVRMRAIGKLEIIPASLSCPRVEIIATMKKNDEQRCLNPESKTIKNLMKAFSQKRSKRAP
notes: Mouse IP-10 (CXCL10), cloned and expressed as described by Campanella et al. (2003) with some modifications; The model holds residues 1-68 (A), 1-67 (B), 4-68 (C) and 4-67 (D); No tag is mentioned; C-terminal residues beyond 67/68 were not seen in the electron density; also called mouse IP-10; CXCL10
For B1, the “stoichiometry N” value amounted to 4.
